Data: US20050064507A1, “Determining kinase specificity” (priority 2003, published 2005)

Key:
PKC-epsilon = biological target: T1, PKC-epsilon (Homo sapiens, UniProt Q02156); experiment: In vitro kinase assay: peptide phosphorylation by PKC-epsilon; format: biochemical; conditions: for phosphorylation by PKC epsilon: peptide concentration 1 uM; for PKC-epsilon phosphorylation: normalized to best substrate
T1 construct: purchased Calbiochem
T1 sequence (Q02156 1-737): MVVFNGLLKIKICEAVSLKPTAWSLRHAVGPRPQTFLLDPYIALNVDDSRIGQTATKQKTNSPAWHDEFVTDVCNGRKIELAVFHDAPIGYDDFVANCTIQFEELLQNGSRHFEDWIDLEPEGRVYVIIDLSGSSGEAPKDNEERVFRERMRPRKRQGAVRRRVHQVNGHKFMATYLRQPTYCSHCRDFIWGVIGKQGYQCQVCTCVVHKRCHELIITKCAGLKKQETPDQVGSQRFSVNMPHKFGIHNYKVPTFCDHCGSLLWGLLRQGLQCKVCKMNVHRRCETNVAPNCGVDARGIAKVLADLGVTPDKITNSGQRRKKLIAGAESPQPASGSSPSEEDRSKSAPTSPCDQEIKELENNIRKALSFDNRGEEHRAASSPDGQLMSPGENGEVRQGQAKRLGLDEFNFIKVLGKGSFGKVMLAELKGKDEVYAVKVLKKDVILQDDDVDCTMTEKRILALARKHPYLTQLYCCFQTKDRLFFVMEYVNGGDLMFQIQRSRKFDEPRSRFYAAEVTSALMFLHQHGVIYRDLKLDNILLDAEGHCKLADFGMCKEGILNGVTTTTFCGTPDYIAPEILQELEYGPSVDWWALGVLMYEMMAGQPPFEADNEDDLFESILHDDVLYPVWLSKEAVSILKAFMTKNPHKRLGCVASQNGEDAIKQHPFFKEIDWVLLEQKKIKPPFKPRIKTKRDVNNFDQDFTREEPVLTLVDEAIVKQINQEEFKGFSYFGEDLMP
Description: Catalytically active preparations of the kinases of interest were either purchased or prepared. Purchased and tested active kinase preparations including the following: PKC-alpha, PKC-delta, PKC-epsilon, PKC-zeta, PKC-mu, PKA, PKG from Calbiochem, ROK alpha/ROCK-II, active from Upstate Biotechnology, and AKT1 from Panvera.
(§1) The conditions of the kinase assay and the amount of active kinase used varied with the kinase and with the accuracy needed. For a typical experiment, 5-20 ng of kinase was used per well and each peptide pool was assayed in duplicate wells. Note that the absolute amount of kinase used was not usually a critical parameter, because the desired information related to specificity of the kinase not its absolute activity, and robustness of the assay depends on comparisons of the same amount of kinase on different peptides. The combination of kinase concentration and assay duration was modified to assure that the stoichiometry of peptide phosphorylation never exceeded 5%. The choice of kinase buffer depended on the kinase being analyzed. For studies of PKC, 100 mM HEPES, 0.05% Triton-X100, 1 mM CaCl2, 20 mM MgCl2, 0.2 mg/ml phosphatidyl serine (Avanti Polar Lipids), PMA 100 ng/ml was typically used. The lipid stock was prepared by transferring 3 mg phosphatidyl serine into iced mixture of 450 μl water plus 50 μl of 10% Triton-X100, sonicating 10 times on ice for 1 sec each.
(§2) The kinase reaction mixture was assembled by sequential addition to a tube held on ice of: 5 μl peptide (100 μM for final concentration of 10 μM), 15 μl of kinase (typically 5 ng/well, in appropriate kinase buffer), 30 μl of ATP (1 uCi/well of ^32P-gamma ATP in a stock of 167 μM cold ATP in the kinase buffer; for final concentration for 100 μM ATP). The mixture was rapidly warmed to desired reaction temperature (30° C. for PKC) and incubated for the desired duration (usually 10 minutes). The kinase assay was terminated by transfer to 4° C. water batch, and rapid addition of an equal volume (50 μl) of stop solution [0.1M ATP+0.1M EDTA in water, pH 8].
(§3) The peptides were then captured from the reaction mixture by transfer to a Reacti-Bind Streptavidin High Binding Capacity Coated Plates (HBC) (Pierce Biotechnology) as follows. The HBC plates were pre-rinsed three times with PBS/Tween PBS/Tween20 0.05% (PBS/Tween). Part of all of the reaction mixture was then transferred wells of a HBC plate pre-filled with 90 μl of phosphate-buffered saline (PBS); typically each aliquots of each phosphorylation reaction were transferred to duplicate HBC plates to assure accuracy by additional replication
For kinase assays done at the standard peptide concentration of 10 μM, the peptide concentration in the reaction mixture becomes 5 μM after addition of the stop solution; consequently 10 μl of the reaction (50 pMoles of peptide) was transferred to the HBC plate. More generally, the amount of reaction mixture transferred was estimated to be about 50 pMoles of peptide. […] The HBC plates were incubated for 0.5 to 1.5 hr at room temperature for complete binding of biotinylated peptides to plate-bound streptavidin. The HBC plates were then washed extensively with PBS/Tween. Five washes were done routinely and additional wash steps were added if the wash solution removed from the plate had measurable radioactivity as detected using a Geiger counter. This step is essential to obtaining a good the signal to noise ratio because the fraction of radioactivity incorporated in the peptides was a tiny fraction of the total in the reaction mixture. The wells were air-dried. A volume of 40-50 μl of microScint-20 (Packard Instruments) was added to each well. The plates were covered with stick-on film sheet. Radioactive emissions were measured in a TopCount NXT Microplate Scintillation and Luminescence Counter (Packard Instruments). Typically samples were counted for 5 minutes (or more) to improve the signal to noise ratio when counts were low. […]

PKC = experiment: In vitro phosphorylation by PKC (average of isoforms alpha, epsilon, delta, theta); format: biochemical; conditions: for average (phosphorylation by PKC-theta, -delta, -epsilon, -alpha): average over PKC-theta, -epsilon and -alpha at 10 and 1 uM peptide, relative to best substrate; for PKC average: average of PKC-alpha, -epsilon, -theta, normalized to best substrate
Description: as §1, §2, §3
For kinase assays done at the standard peptide concentration of 10 μM, the peptide concentration in the reaction mixture becomes 5 μM after addition of the stop solution; consequently 10 μl of the reaction (50 pMoles of peptide) was transferred to the HBC plate. More generally, the amount of reaction mixture transferred was estimated to be about 50 pMoles of peptide. […] The HBC plates were incubated for 0.5 to 1.5 hr at room temperature for complete binding of biotinylated peptides to plate-bound streptavidin. The HBC plates were then washed extensively with PBS/Tween. Five washes were done routinely and additional wash steps were added if the wash solution removed from the plate had measurable radioactivity as detected using a Geiger counter. This step is essential to obtaining a good the signal to noise ratio because the fraction of radioactivity incorporated in the peptides was a tiny fraction of the total in the reaction mixture. The wells were air-dried. A volume of 40-50 μl of microScint-20 (Packard Instruments) was added to each well. The plates were covered with stick-on film sheet. Radioactive emissions were measured in a TopCount NXT Microplate Scintillation and Luminescence Counter (Packard Instruments). Typically samples were counted for 5 minutes (or more) to improve the signal to noise ratio when counts were low.
Many peptides that are good substrates for PKC enzymes were identified using the methods of the invention. For example, Tables 4 and 5 provide a listing of peptides identified as potentially useful kinase substrates. […]

Substance | phosphorylation by PKC epsilon (PKC-epsilon) | average (phosphorylation by PKC-theta, -delta, -epsilon, -alpha) (PKC) | PKC-epsilon phosphorylation (PKC-epsilon) [%] | PKC average (PKC) [%]
129 (VQRHRSMRKTFARYLSFRRD) [compound 129] | 65 | 40 | – | –
139 (RPTPGDGEKRSRIKKSKKRK) [compound 139] | 24 | 30 | – | –
133 (LEKRGMLGKRPRRKSSRRKK) [compound 133] | 31 | 37 | – | –
167 (GLPAPGEDKSIYRRGSRRWR) [compound 167] | 6 | 15 | – | –
127 (SQVQKQRSAGSFKRNSIKKI) [compound 127] | 32 | 43 | – | –
106 (EILSRRPSYRKILND) [compound 106] | – | – | 31 | 21
154 (KKFFTQGWAGWRKKTSFRKP) [compound 154] | 29 | 22 | – | –
166 (MAQIERGEARIQRRISIKKA) [compound 166] | 10 | 15 | – | –
165 (TEEKSKKRKKKHRKNSRKHK) [compound 165] | 12 | 16 | – | –
94 (KLAVGRHSFSRRSGV) [compound 94] | – | – | 13 | 36
78 (KFARKSTRRSIRLPE) [compound 78] | – | – | 84 | 63
76 (HVRRRRGTFKRSKLRARD) [compound 76] | – | – | 100 | 91
99 (AGWRKKTSFRKPKED) [compound 99] | – | – | 27 | 27
110 (EGGDRRASGRRK) [compound 110] | – | – | 4 | 15
143 (VRYTPYTISPYNRKGSFRKQ) [compound 143] | 21 | 28 | – | –
109 (KEVVRTDSLKGRRGR) [compound 109] | – | – | 26 | 16
93 (AARKKRISVKKKQEQ) [compound 93] | – | – | 40 | 37
112 (KRPGKKGSNKRPGKR) [compound 112] | – | – | 11 | 12
115 (NRKKKRTSFKRKA) [compound 115] | 91 | 80 | – | –
137 (PSKSPSKKKKKFRTPSFLKK) [compound 137] | 32 | 31 | – | –

Substance | phosphorylation by PKC epsilon (PKC-epsilon) | average (phosphorylation by PKC-theta, -delta, -epsilon, -alpha) (PKC) | PKC-epsilon phosphorylation (PKC-epsilon) [%] | PKC average (PKC) [%]
135 (KKKFRTPSFLKKSKK) [compound 135] | 27 | 33 | – | –
162 (KKKFSFKKPFKLSGLSFKRN) [compound 162] | 19 | 17 | – | –
85 (RFARKGSLRQKNV) [compound 85] | – | – | 86 | 52
146 (QAQRQIKRGAPPRRSSIRNA) [compound 146] | 28 | 27 | – | –
159 (LYARLARAYRRSQRASFKRA) [compound 159] | 25 | 19 | – | –
134 (RSRSRSRSKSKDKRKSRKRS) [compound 134] | 32 | 34 | – | –
122 (RAITSTLASSFKRRR) [compound 122] | 72 | 49 | – | –
102 (AGSFKRNSIKKIV) [compound 102] | – | – | 14 | 23
118 (RPQNTLKASKKKKRASFKRK) [compound 118] | 89 | 64 | – | –
144 (LSSMFGTLPRKSRKGSVRKQ) [compound 144] | 24 | 28 | – | –
128 (QQVDRERPHVRRRRGTFKRS) [compound 128] | 32 | 42 | – | –
130 (EYLERRASRRRAV) [compound 130] | 46 | 39 | – | –
86 (RQRKRKLSFRRRTDKD) [compound 86] | – | – | 63 | 48
95 (KKKFRTPSFLKKSKK) [compound 95] | – | – | 31 | 33
147 (RDIRQSPKRGFLRSASLGRR) [compound 147] | 26 | 26 | – | –
117 (NRKKKRTSFKRKA) [compound 117] | 67 | 70 | – | –
79 (NRKKKRTSFKRKA) [compound 79] | – | – | 92 | 60
124 (PRLIRRGSKKRPAR) [compound 124] | 49 | 49 | – | –
138 (EYLERRASRRRAV) [compound 138] | 27 | 31 | – | –
